Source: patent US20150064134A1

Key:
Assay in all cases: cell-based or functional assay
CDK6/cyclinD3(h) (human) = CDK6/cyclinD3(h) (human) (UniProt Q00534)
DRAK1(h) (human) = biological target: T1, DRAK1(h) (human) (UniProt Q9UEE5)
T1 sequence (looked up): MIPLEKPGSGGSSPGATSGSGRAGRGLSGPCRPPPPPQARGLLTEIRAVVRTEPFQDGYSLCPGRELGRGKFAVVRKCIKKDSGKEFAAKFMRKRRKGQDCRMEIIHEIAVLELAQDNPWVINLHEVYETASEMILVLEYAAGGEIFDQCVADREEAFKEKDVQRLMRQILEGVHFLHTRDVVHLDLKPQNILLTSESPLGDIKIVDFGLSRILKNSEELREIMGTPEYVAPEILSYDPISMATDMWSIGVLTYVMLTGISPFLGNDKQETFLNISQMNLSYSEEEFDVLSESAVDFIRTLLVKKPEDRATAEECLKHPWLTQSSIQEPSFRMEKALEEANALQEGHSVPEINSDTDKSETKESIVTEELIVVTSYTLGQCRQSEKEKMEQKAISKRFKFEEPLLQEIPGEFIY

ZIPK(h) (human) = ZIPK(h) (human) (UniProt O43293)
CSK(h) (human) = CSK(h) (human) (UniProt P41240)
SGK3(h) (human) = biological target: T2, SGK3(h) (human) (UniProt Q96BR1)
T2 sequence (looked up): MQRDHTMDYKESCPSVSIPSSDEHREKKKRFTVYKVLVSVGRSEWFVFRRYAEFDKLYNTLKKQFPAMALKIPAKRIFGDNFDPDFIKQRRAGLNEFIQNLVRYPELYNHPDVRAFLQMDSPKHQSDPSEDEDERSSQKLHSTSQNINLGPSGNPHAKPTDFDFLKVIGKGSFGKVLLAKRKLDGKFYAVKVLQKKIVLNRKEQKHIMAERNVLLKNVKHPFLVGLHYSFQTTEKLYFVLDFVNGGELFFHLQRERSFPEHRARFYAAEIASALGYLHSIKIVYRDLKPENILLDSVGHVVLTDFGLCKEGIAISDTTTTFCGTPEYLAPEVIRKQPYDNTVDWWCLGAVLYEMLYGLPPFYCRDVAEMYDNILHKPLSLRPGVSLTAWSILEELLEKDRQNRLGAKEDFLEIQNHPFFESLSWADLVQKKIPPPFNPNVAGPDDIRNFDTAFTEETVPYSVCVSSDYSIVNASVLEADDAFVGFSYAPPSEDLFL

MuSK(h) (human) = MuSK(h) (human) (UniProt O15146)
[1] = biological target: CDK7/cyclinH/MAT1(h) (human) (UniProt P50613)
SGK(h) (human) = SGK(h) (human) (UniProt O00141)
HIPK2(h) (human) = HIPK2(h) (human) (UniProt Q9H2X6)
SAPK4(h) (human) = biological target: T3, SAPK4(h) (human) (UniProt O15264)
T3 sequence (looked up): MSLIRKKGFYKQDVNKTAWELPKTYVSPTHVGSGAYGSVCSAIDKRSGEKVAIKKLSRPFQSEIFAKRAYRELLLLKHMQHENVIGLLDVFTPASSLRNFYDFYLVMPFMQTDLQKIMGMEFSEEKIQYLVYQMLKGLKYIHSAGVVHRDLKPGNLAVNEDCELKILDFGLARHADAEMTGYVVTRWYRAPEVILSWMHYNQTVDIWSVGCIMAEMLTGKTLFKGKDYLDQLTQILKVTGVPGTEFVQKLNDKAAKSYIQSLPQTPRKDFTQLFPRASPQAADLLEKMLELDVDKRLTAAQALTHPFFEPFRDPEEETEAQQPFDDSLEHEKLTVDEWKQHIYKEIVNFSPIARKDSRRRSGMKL

PTK5(h) (human) = PTK5(h) (human) (UniProt P42685)
TAO2(h) (human) = biological target: T4, TAO2(h) (human) (UniProt Q9UL54)
T4 sequence (looked up): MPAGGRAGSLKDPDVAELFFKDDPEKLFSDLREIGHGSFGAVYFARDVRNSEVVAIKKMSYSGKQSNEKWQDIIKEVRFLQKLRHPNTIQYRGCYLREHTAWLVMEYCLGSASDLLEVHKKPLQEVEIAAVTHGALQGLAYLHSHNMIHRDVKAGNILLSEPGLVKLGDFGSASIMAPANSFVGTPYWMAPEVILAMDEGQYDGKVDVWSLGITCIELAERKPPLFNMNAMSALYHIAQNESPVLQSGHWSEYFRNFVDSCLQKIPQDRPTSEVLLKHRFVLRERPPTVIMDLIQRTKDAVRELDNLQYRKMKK

SAPK3(h) (human) = biological target: T5, SAPK3(h) (human) (UniProt P53778)
T5 sequence (looked up): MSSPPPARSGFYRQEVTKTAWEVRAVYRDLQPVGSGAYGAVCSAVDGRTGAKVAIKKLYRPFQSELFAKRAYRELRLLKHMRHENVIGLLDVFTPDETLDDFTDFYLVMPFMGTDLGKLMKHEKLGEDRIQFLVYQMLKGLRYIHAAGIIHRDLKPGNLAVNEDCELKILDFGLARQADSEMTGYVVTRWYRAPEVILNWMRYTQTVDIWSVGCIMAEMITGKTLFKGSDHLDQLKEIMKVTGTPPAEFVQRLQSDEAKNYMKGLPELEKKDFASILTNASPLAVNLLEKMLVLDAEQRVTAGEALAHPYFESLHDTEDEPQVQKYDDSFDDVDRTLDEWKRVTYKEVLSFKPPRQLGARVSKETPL

EphA8(h) (human) = biological target: T6, EphA8(h) (human) (UniProt P29322)
T6 sequence (looked up): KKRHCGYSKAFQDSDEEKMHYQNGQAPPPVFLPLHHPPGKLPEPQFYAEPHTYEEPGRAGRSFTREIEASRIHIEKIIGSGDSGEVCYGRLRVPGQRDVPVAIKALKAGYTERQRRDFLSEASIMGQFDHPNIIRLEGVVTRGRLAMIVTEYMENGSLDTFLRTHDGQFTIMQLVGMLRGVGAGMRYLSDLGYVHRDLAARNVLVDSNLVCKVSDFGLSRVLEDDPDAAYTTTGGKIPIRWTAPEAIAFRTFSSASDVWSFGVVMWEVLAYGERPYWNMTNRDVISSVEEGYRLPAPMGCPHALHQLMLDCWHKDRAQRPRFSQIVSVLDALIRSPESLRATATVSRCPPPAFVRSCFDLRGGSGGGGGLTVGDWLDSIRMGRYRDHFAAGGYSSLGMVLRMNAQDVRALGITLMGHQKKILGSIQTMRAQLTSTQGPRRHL

MRCKβ(h) (human) = MRCKβ(h) (human) (UniProt Q9Y5S2)
ASK1(h) (human) = ASK1(h) (human) (UniProt Q99683)

CDK7/cyclinH/MAT1(h) (human), sequence (P50613 whole entry, chain 1 of 3): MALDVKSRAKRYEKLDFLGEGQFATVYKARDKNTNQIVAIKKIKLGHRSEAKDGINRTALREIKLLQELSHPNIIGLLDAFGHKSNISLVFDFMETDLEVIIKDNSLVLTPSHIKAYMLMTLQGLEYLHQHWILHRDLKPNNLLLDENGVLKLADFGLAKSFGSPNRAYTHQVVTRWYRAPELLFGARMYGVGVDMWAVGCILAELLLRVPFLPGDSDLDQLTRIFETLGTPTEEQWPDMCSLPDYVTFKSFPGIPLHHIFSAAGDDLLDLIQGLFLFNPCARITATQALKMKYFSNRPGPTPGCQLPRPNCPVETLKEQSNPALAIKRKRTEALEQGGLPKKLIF
CDK7/cyclinH/MAT1(h) (human), sequence (P51946 whole entry, chain 2 of 3, further chain): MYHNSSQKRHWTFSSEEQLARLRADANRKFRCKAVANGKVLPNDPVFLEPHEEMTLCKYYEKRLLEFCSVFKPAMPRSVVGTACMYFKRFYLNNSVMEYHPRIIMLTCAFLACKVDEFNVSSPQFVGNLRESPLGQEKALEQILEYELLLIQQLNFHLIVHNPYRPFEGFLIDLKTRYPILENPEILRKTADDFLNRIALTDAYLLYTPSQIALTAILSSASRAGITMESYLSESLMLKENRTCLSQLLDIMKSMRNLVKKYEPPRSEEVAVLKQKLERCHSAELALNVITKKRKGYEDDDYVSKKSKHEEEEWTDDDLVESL
CDK7/cyclinH/MAT1(h) (human), sequence (P51948 whole entry, chain 3 of 3, further chain): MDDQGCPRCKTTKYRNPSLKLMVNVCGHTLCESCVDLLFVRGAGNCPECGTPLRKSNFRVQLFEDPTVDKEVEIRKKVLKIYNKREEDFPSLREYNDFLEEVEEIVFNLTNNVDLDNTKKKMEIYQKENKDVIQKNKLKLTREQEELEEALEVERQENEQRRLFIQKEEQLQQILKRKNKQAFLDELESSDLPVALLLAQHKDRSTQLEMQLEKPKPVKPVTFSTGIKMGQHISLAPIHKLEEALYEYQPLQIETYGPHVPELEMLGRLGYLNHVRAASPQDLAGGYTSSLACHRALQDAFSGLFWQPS
CDK6/cyclinD3(h) (human), sequence (Q00534 whole entry, chain 1 of 2): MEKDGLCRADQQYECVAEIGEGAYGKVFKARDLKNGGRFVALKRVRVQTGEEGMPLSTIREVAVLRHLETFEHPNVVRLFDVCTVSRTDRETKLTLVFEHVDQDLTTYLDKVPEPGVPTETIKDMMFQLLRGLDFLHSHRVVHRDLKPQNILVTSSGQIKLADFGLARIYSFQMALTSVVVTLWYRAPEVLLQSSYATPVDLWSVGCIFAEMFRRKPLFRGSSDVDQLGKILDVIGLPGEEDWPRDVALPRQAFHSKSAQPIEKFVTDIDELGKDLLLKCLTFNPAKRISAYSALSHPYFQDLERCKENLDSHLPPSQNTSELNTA
CDK6/cyclinD3(h) (human), sequence (P30281 whole entry, chain 2 of 2, further chain): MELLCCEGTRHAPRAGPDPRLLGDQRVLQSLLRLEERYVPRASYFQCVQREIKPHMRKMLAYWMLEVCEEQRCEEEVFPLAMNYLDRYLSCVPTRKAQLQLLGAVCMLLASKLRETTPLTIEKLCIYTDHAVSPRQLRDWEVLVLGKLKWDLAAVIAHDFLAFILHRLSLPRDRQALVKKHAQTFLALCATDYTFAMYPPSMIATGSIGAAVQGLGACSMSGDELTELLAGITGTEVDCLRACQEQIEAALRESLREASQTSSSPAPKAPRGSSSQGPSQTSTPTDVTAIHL
MRCKβ(h) (human), sequence (Q9Y5S2 1-473 limits assumed): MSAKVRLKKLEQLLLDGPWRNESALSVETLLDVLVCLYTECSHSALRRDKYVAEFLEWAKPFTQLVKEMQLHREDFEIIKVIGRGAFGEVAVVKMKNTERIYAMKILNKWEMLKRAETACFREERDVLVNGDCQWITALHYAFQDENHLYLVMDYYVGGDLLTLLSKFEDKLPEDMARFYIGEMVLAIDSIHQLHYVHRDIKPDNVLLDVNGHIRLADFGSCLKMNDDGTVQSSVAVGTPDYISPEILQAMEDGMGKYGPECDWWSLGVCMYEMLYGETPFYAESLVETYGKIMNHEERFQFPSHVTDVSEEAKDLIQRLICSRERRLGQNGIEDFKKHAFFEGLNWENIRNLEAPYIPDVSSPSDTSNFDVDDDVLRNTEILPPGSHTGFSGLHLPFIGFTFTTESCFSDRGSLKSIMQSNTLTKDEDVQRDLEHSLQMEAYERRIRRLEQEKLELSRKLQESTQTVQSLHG
PTK5(h) (human), sequence (P42685 whole entry): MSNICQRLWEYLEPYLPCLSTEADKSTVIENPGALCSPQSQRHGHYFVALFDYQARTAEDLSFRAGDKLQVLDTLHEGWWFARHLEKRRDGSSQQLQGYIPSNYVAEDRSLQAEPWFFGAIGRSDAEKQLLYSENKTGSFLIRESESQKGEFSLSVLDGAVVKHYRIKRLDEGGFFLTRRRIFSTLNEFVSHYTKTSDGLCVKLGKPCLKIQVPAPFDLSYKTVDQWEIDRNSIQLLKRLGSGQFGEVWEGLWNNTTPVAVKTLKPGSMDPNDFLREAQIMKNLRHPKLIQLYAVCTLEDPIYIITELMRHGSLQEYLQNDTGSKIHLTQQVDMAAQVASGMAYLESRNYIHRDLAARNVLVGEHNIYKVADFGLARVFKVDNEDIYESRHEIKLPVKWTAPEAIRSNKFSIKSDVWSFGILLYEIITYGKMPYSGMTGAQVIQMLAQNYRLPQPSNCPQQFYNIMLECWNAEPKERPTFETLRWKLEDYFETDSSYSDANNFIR
SGK(h) (human), sequence (O00141 60-431 limits assumed): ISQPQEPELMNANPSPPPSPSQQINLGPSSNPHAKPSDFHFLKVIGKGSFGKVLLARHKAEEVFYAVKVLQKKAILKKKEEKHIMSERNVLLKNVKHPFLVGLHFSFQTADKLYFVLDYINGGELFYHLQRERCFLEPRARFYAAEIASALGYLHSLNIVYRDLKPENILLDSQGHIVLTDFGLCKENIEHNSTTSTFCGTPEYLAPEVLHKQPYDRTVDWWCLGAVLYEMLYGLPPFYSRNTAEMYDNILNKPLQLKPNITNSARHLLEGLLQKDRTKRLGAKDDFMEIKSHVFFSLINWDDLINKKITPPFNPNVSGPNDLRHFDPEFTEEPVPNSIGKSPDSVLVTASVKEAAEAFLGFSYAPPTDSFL

Substance | % activity at 100 µM (CDK6/cyclinD3(h) (human)) [%] | % activity at 100 µM (DRAK1(h) (human)) [%] | % activity at 100 µM (ZIPK(h) (human)) [%] | % activity at 100 µM (CSK(h) (human)) [%] | % activity at 100 µM (SGK3(h) (human)) [%] | % activity at 100 µM (MuSK(h) (human)) [%] | % activity at 100 µM [1] [%] | % activity at 100 µM (SGK(h) (human)) [%] | % activity at 100 µM (HIPK2(h) (human)) [%] | % activity at 100 µM (SAPK4(h) (human)) [%] | % activity at 100 µM (PTK5(h) (human)) [%] | % activity at 100 µM (TAO2(h) (human)) [%] | % activity at 100 µM (SAPK3(h) (human)) [%] | % activity at 100 µM (EphA8(h) (human)) [%] | % activity at 100 µM (MRCKβ(h) (human)) [%] | % activity at 100 µM (ASK1(h) (human)) [%]
MMI-0400 (peptide) | 85 | 14 | 13 | 16 | 8 | 93 | 47 | 54 | 90 | 91 | 129 | 74 | 79 | 146 | 71 | 69
MMI-0300 (peptide) | 86 | 14 | 28 | 49 | 10 | 93 | 65 | 48 | 73 | 96 | 132 | 70 | 84 | 93 | 83 | 80
MMI-0500 (peptide) | 23 | 8 | 1 | 2 | -3 | 27 | 15 | 2 | 38 | 48 | 96 | 15 | 24 | 337 | -10 | -4
